Measured values: patent publication US20030190641A1, “Live cell method for observing cellular processes” (CEDARS-SINAI MEDICAL CENTER, priority 2002, published 2003)

Tests used:
H1299 cells [1] = experiment: Single, live cell imaging: duration of mitosis phases of cells expressing PTTG-EGFP; format: cell-based, human; conditions: 18 hours after transfection
Description: (§1) Human H1299 cells were grown in Dulbeccos's Modified Eagle Medium (DMEM) with 10% Fetal Bovine Serum (FBS) and transfected with Lipofectamine 2000 (obtained from Invitrogen Corporation; Carlsbad, Calif.; hereinafter “Invitrogen”). PTTG-EGFP and p55CDC-EGFP were constructed by cloning PTTG or p55CDC (obtained from Amgen, Inc.; Thousand Oaks, Calif.) into pEGFP-N3 (obtained from BD Biosciences Clontech; Palo Alto, Calif.; hereinafter “Clontech”). Non-degradable mutant PTTG-EGFP was obtained from Dr. Chris McCabe (University of Birmingham, England, UK). EGFP was at the C-terminus of PTTG or p55CDC. Cells were studied (microscopy or by Western blot) 18 to 24 hours after transfection.
(§2) Observation of individual live cells over 48 hours or longer was performed by incubating cells in an FCS2 Closed Perfusion System (obtained from Bioptechs; Butler, Pa.). Cells were perfused with CO2-independent L15 medium (obtained from Invitrogen) supplemented with 10% FBS and penicillin/streptomycin and saturated with ambient air. Perfusion chamber temperature was set to 37° C., and cells were grown in the perfusion system for up to a week until confluency.
(§3) The perfusion chamber was placed on an inverted fluorescence microscope (obtained from Nikon Corporation; Melville, N.Y.) and observed with a 40× extra-long working distance objective lens. Cells were observed from every few seconds to every several hours depending on the speed of cell changes. Durations of mitosis phases were determined by counting the minutes between two sequential mitotic milestones. Phase-contrast and EGFP fluorescent images were taken simultaneously at frequencies ranging from every minute (e.g., during metaphase to anaphase transition) to every few hours (e.g., after telophase), with a CCD digital camera.
(§4) Relative fluorescence intensity was objectively determined with the application of two neutral density filters (NDFs). Each NDF reduces incident light by 50%. High fluorescence was defined when a cell was clearly visualized after application of two NDFs. Medium fluorescence was defined as a cell clearly visualized after application of one but not two NDFs. Low fluorescence was defined as a cell only visualized when neither NDF was applied.
As depicted in Table 1, prophase (Pro), metaphase (Meta), anaphase (Ana), and telophase (Telo) durations were recorded (in minutes) in untransfected control cells (Control), cells expressing EGFP only (EGFP), and in cells expressing PTTG-EGFP (PTTG-EGFP) 18 hours after transfection. […] For some cells expressing PTTG-EGFP, no distinct anaphase or telophase was seen because of abnormal chromosome segregation and cytokinesis.

H1299 cells [2] = experiment: Single, live cell imaging: destiny of mitosis (PTTG degradation, chromosome segregation, cytokinesis, aneuploidy); format: cell-based, human
Description: as §1, §2, §3, §4
As failure of PTTG degradation is associated with chromosome non-segregation, an EGFP-tagged non-degradable mutant PTTG (DM-PTTG-EGFP) was expressed in H1299 cells and chromosome segregation and cytokinesis of individual live cells observed (FIG. 6; FIG. 5A). Similar to the wild-type PTTG, DM-PTTG localizes to mitotic spindles (FIGS. 5B-5G) and chromosomes (data not shown). […] Most (51/55) cells underwent asymmetrical cytokinesis, while some cells decondensed chromosomes; macronuclei ensued in both cases. During asymmetrical cytokinesis, chromosomes and mitotic spindles were closely attached and moved to one cell pole (FIGS. 5B-5G). The cytokinesis furrow occurred roughly at the position of the distal centrosome (FIGS. 5C and 5D). Both centrosomes were retained in the daughter cell containing chromosomes (FIGS. 5E and 5F).

[3] = High expression level (fluorescence)
[4] = Low expression level (fluorescence)
[5] = Medium expression level (fluorescence)

B1: PTTG-EGFP: EGFP-tagged PTTG (pituitary tumor transforming gene product), EGFP at the C-terminus, expressed in H1299 cells by transfection (protein, UniProt O95997 2-202, looked up)
Securin: ATLIYVDKENGEPGTRVVAKDGLKLGSGPSIKALDGRSQVSTPRFGKTFDAPPALPKATRKALGTVNRATEKSVKTKGPLKQKQPSFSAKKMTEKTVKAKSSVPASDDAYPEIEKFFPFNPLDFESFDLPEEHQIAHLPLSGVPLMILDEERELEKLFQLGPPSPVKMPSPPWESNLLQSPSSILSTLDVELPPVCCDIDI
modifications: C-terminal EGFP tag
notes: EGFP-tagged PTTG (pituitary tumor transforming gene product), EGFP at the C-terminus, expressed in H1299 cells by transfection
- Duration of metaphase (Meta) (H1299 cells [1]; [3]): 112 ± 31 min
- Duration of prophase (Pro) (H1299 cells [1]; [3]): 59 ± 7 min
- Duration of anaphase (Ana) (H1299 cells [1]; [4]): 4 ± 0 min
- Duration of metaphase (Meta) (H1299 cells [1]; [4]): 26 ± 4 min
- Duration of prophase (Pro) (H1299 cells [1]; [4]): 25 ± 3 min
- Duration of telophase (Telo) (H1299 cells [1]; [4]): 5 ± 0 min
- Duration of anaphase (Ana) (H1299 cells [1]; [5]): 4 ± 0 min
- Duration of metaphase (Meta) (H1299 cells [1]; [5]): 49 ± 16 min
- Duration of prophase (Pro) (H1299 cells [1]; [5]): 35 ± 12 min
- Duration of telophase (Telo) (H1299 cells [1]; [5]): 5 ± 0 min
- Cells with anaphase bridge (H1299 cells [2]; 65 cells expressing PTTG-EGFP observed): 2/65
- Time of degradation prior to the onset of anaphase (H1299 cells [2]; cells that underwent apparently normal mitosis): about 1 minute
- Aneuploidy of daughter cells (H1299 cells [2]; parent cells expressing high levels): All daughter cells
- Aneuploidy rate of daughter cells (H1299 cells [2]; parent cells expressing low levels): 18%
- Aneuploidy rate of daughter cells (H1299 cells [2]; parent cells expressing medium levels): 63%
